This experiment concerns the target T1, β3 integrin (Homo sapiens, UniProt P05106+P06756).
T1 construct: we next stimulated human Jurkat T-cells or primary CD8+ T-cells with a synthetic version of the soluble RGDKGE; endogenous in cells; host or cells: Jurkat T-cells
The experiment is described as follows: Western blot of β3 integrin phosphorylation in Jurkat T-cells after peptide stimulation. In kind it is cell-based. The settings on record: compared to control peptide CP. How it is done: FIGS. 2A-2F. Detection of RGDKGE (SEQ ID NO: 1)-containing collagen peptide in malignant tumor cells and expression of key signaling molecules in T-cells. Briefly, whole cell lysates and serum free concentrated conditioned medium was prepared from tumor cells lines. FIG. 2A. Western blot analysis of whole cell lysates from human C8161 and murine B16F10 melanoma cells for the expression of the low molecular weight 16 kDa RGDKGE (SEQ ID NO: 1)-containing collagen peptide (XL313) or actin as a loading control. FIG. 2B. […]
Whole cell and CAM tissue lysates were collected in RIPA buffer (10 mM Tris-HCl, pH 8.0; 1 mM EDTA; 0.5 mM EGTA; 1% Triton X-100; 0.1% Sodium Deoxycholate; 0.1% SDS; 140 mM NaCl) supplemented with 1× protease inhibitor and 1× phosphatase inhibitor and were run on polyacrylamide gels using denaturing conditions. […] Western blot bands were quantified using Image J software based on pixel intensity.
We previously made the surprising observation that a small bioactive collagen peptide containing the core amino acid sequence RGDKGE (SEQ ID NO: 1) could be generated inside a subset of M2-like activated macrophages as well as a variety of other malignant tumor cells, and then actively secreted outside the cells (11-13). Importantly, minimal levels of this soluble collagen peptide was detected in normal cells (13). […]
In general terms: Immunoblotting shows a protein as a band on a membrane.

T1 sequence (P05106 27-788): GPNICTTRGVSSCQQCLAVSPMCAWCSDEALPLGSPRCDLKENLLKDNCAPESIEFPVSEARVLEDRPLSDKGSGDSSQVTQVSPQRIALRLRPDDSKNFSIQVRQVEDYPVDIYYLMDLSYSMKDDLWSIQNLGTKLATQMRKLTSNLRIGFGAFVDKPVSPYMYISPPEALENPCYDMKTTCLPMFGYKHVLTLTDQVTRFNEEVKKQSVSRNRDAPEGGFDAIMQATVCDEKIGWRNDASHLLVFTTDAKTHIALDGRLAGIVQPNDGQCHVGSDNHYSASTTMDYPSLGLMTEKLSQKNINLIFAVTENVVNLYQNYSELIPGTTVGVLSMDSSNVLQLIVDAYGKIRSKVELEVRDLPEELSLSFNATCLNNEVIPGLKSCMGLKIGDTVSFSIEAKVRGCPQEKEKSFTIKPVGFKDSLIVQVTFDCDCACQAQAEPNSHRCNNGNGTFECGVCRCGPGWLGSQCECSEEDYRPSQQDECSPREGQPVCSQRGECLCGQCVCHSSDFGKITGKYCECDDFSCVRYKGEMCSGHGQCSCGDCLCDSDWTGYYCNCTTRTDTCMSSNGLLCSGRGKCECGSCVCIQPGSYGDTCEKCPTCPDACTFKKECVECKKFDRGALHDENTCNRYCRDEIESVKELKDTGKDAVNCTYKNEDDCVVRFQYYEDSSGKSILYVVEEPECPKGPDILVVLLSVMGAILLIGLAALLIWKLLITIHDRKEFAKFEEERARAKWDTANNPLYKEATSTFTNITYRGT
T1 sequence (P06756 31-889 limits assumed): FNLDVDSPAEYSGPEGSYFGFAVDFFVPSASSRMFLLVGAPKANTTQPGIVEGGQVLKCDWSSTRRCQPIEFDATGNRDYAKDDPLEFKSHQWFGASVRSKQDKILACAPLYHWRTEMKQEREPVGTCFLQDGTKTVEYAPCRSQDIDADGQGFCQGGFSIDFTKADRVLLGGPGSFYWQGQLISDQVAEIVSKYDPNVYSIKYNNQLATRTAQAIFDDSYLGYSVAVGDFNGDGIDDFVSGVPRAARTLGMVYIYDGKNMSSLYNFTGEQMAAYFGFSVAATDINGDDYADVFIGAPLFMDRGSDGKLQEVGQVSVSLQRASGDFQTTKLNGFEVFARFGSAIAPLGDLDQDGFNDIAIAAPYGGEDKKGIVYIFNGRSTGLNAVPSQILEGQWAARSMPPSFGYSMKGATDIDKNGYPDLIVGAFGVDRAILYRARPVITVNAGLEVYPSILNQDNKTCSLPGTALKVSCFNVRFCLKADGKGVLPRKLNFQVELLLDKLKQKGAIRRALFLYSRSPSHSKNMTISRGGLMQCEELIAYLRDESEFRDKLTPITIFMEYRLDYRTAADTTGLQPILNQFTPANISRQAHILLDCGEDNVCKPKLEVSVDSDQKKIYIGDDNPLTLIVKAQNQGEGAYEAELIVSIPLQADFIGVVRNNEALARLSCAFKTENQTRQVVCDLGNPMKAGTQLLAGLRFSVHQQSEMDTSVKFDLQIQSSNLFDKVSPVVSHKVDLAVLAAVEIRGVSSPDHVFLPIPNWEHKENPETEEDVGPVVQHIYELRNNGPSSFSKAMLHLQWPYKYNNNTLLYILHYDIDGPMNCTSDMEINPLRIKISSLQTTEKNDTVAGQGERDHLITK
T1 sequence (P06756 891-1048 partner limits assumed): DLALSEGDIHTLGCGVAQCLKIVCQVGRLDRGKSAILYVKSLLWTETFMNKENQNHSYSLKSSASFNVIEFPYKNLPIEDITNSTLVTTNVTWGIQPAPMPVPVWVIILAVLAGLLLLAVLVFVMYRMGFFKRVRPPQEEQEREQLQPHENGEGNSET

Take “QGPRGDKGE (CQGPRGDKGEC; Synthetic: Synthetic collagen RGD containing peptide P-2) [Peptide P2, synthetic version of the soluble RGDKGE-containing collagen peptide]”: the β3 integrin phosphorylation entry is given as “enhanced β3 integrin phosphorylation”.
